# Test results as given in IntAct's records for PubMed 20876572.
# B1: Methylmalonic aciduria type A protein, mitochondrial (Homo sapiens), Q8IVH4 (parent)
# chain: MPMLLPHPHQHFLKGLLRAPFRCYHFIFHSSTHLGSGIPCAQPFNSLGLHCTKWMLLSDGLKRKLCVQTTLKDHTEGLSDKEQRFVDKLYTGLIQGQRACLAEAITLVESTHSRKKELAQVLLQKVLLYHREQEQSNKGKPLAFRVGLSGPPGAGKSTFIEYFGKMLTERGHKLSVLAVDPSSCTSGGSLLGDKTRMTELSRDMNAYIRPSPTRGTLGGVTRTTNEAILLCEGAGYDIILIETVGVGQSEFAVADMVDMFVLLLPPAGGDELQGIKRGIIEMADLVAVTKSDGDLIVPARRIQAEYVSALKLLRKRSQVWKPKVIRISARSGEGISEMWDKMKDFQDLMLASGELTAKRRKQQKVWMWNLIQESVLEHFRTHPTVREQIPLLEQKVLIGALSPGLAADFLLKAFKSRD
# partner: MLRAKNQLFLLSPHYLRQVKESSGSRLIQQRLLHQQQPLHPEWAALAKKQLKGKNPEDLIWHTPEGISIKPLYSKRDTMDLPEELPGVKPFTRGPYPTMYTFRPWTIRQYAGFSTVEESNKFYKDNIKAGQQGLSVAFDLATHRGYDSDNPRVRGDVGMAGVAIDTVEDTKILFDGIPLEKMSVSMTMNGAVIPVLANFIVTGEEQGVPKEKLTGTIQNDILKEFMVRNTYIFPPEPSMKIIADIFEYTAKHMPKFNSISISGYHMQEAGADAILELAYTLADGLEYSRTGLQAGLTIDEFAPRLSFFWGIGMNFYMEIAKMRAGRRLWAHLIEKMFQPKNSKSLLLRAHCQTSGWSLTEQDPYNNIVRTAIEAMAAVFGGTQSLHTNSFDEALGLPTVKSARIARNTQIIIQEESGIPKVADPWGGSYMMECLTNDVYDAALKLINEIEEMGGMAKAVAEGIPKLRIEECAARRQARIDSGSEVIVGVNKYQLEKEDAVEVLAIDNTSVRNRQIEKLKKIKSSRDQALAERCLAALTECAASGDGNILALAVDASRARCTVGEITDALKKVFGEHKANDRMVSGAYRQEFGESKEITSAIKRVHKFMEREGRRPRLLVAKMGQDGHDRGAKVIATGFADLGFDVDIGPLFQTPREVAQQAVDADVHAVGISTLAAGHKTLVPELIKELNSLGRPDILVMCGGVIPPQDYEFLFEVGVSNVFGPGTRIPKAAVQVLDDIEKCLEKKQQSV
# Variants of: B1
# Settings: with muta_human MMUT
row,effect of a mutation on the interaction,Variant
1,disrupting interaction strength,MPMLLPHPHQHFLKGLLRAPFRCYHFIFHSSTHLGSGIPCAQPFNSLGLHCTKWMLLSDGLKRKLCVQTTLKDHTEGLSDKEQRFVDKLYTGLIQGQRACLAEAITLVESTHSRKKELAQVLLQKVLLYHREQEQSNKGKPLAFRVGLSGPPGAGKSTFIEYFGKMLTERGHKLSVLAVDPSSCTSGRSLLGDKTRMTELSRDMNAYIRPSPTRGTLGGVTRTTNEAILLCEGAGYDIILIETVGVGQSEFAVADMVDMFVLLLPPAGGDELQGIKRGIIEMADLVAVTKSDGDLIVPARRIQAEYVSALKLLRKRSQVWKPKVIRISARSGEGISEMWDKMKDFQDLMLASGELTAKRRKQQKVWMWNLIQESVLEHFRTHPTVREQIPLLEQKVLIGALSPGLAADFLLKAFKSRD [G188R]
